The test concerns the target Soc-SpyCatcher fusion protein (displayed on T4 phage: T4-SpyCatcher phage) (bacteriophage T4). Put plainly: co-sedimentation.

This passage reports copies per capsid (rRBD molecules per capsid) results from article PMC8442874.

For the substance “SUMO-RBD-SpyTag fusion protein, refolded (from UniProt P0DTC2 319-545) (domain or fragment)”, the copies per capsid (rRBD molecules per capsid) is 300.
